Laboratory results published in patent publication US6989260B2, “Human poly(ADP-ribose) polymerase 2 materials and methods” (ICOS Corporation, priority 1999, dated 2006).

System: hPARP2 poly(ADP-ribose) polymerase activity
Experiment: Poly(ADP-ribose) polymerase activity assay (32P-NAD+ incorporation, SDS-PAGE, autoradiography)
Type: biochemical, human
Conditions: 250 ng PARP1A/PARP2B or 25 ng FB-hPARP2, 10 min at room temperature, 2.5 μM unlabeled NAD+, E. coli Strain B DNA, gamma-[32P]-NAD+
Source text: The PARP activity of hPARP2, or some substructure thereof, can be measured by the ability of that component to incorporate the ADP-ribose unit from NAD into polymers of ADP-ribose coupled to a protein substrate.
A fusion protein, designated PARP1A/PARP2B, containing aa 1–662 of hPARP1 (SEQ ID NO:25) fused upstream of aa 230–583 of hPARP2 (SEQ ID NO:2) was used in the measurement of hPARP2 poly(ADP-ribose) polymerase activity. PARP1A/PARP2B contained the DNA binding domain (aa 1–373 of SEQ ID NO:25) and automodification domain (aa 373–525 of SEQ ID NO:25) of hPARP1 and the putative catalytic domain of hPARP2 (aa […] of SEQ ID NO:2).
In addition to PARP1A/PARP2B, a full-length hPARP2 protein fused to a poly-His tag (FB-hPARP2) was constructed for use in the measurement of hPARP2 poly(ADP-ribose) polymerase activity. The construction of FB-hPARP2 was carried out as follows.
For poly(ADP-ribose) polymerase activity assays, reagents were obtained from Sigma, unless otherwise indicated. PARP1A/PARP2B (250 ng) or FB-hPARP2 (25 ng) protein was incubated for 10 min at room temperature in assay buffer (total volume of 20 μL) containing 100 mM Tris, pH 8.0, 1 mM MgCl2, 10% glycerol, 1.5 mM dithiothreitol (Boehringer Mannheim/Roche Molecular Biochemicals, Indianapolis, Ind.), 2.5 μM unlabeled NAD^+, 16.7 μg/mL E. coli Strain B DNA, and 0.33 μCi gamma-[^32P]-NAD^+ (NEN, Boston, Mass.). […]

Molecule	intrinsic poly(ADP-ribose) polymerase activity (ability to produce poly(ADP-ribose) polymers)
PARP1A/PARP2B: fusion protein containing aa 1–662 of hPARP1 fused upstream of aa 230–583 of hPARP2; His tag leader, Strep-tag (SEQ ID NO:47)	possessed intrinsic poly(ADP-ribose) polymerase activity
FB-hPARP2: full-length hPARP2 protein fused to a poly-His tag (SEQ ID NO:59) (protein, poly-His tag) MRGSHHHHHHDYDIPTTENLYFQGAMDPEFKGLRRPMAARRRRSTGGGRARALNESKRVNNGNTAPEDSSPAKKTRRCQRQESKKMPVAGGKANKDRTEDKQDGMPGRSWASKRVSESVKALLLKGKAPVDPECTAKVGKAHVYCEGNDVYDVMLNQTNLQFNNNKYYLIQLLEDDAQRNFSVWMRWGRVGKMGQHSLVACSGNLNKAKEIFQKKFLDKTKNNWEDREKFEKVPGKYDMLQMDYATNTQDEEETKKEESLKSPLKPESQLDLRVQELIKLICNVQAMEEMMMEMKYNTKKAPLGKLTVAQIKAGYQSLKKIEDCIRAGQHGRALMEACNEFYTRIPHDFGLRTPPLIRTQKELSEKIQLLEALGDIEIAIKLVKTELQSPEHPLDQHYRNLHCALRPLDHESYEFKVISQYLQSTHAPTHSDYTMTLLDLFEVEKDGEKEAFREDLHNRMLLWHGSRMSNWVGILSHGLRIAPPEAPITGYMFGKGIYFADMSSKSANYCFASRLKNTGLLLLSEVALGQCNELLEANPKAEGLLQGKHSTKGLGKMAPSSAHFVTLNGSTVPLGPASDTGILNPDGYTLNYNEYIVYNPNQVRMRYLLKVQFNFLQLW	possessed intrinsic poly(ADP-ribose) polymerase activity
